The text below walks through data of article PMC6053953.

Assay [1] concerns the target His6-tagged human peroxiredoxin 3 (human). Nature of the assay: native MS; 20 uM protein (monomer) in 100 mM ammonium acetate, pH 8.0; trap collision energy 20 V; step: chains to the dodecameric ring.
Assay [2] shares this target. Nature of the assay: AUC; sedimentation velocity, 20 C, 20 uM protein (monomer) in 100 mM ammonium acetate, pH 4.0; c(s) distribution; step: ring-to-ring stacking.
The target is the same in assay [3]. Nature of the assay: native MS; protein buffer exchanged from 100 mM ammonium acetate, pH 4.0, back into pH 8.0 before injection; step: stacks of rings back to single rings.
The target is the same in assay [4]. Description: native MS; 20 uM protein (monomer) buffer exchanged from pH 8.0 into 100 mM ammonium acetate, pH 4.0; spectra from 60 seconds (0 hours) to 3 hours after exchange; step: ring-to-ring stacking.
Assay [5] shares this target. Nature of the assay: SEC-SLS; Superdex 200 Increase 10/300 GL with refractive index and right-angle light scattering, 28 C; 20 uM protein in 100 mM ammonium acetate, pH 8.0; step: chains to the dodecameric ring.
For assay [6], the target named is cleaved human peroxiredoxin 3 (human). Description: native MS; 20 uM protein (monomer) in 100 mM ammonium acetate, pH 8.0; trap collision energy 20 V; step: chains to the dodecameric ring.
For assay [7] the target is unchanged. Description: AUC; sedimentation velocity, 20 C, 20 uM protein (monomer) in 100 mM ammonium acetate, pH 4.0; c(s) distribution; step: ring-to-ring stacking.
The target is the same in assay [8]. Nature of the assay: native MS; protein buffer exchanged from 100 mM ammonium acetate, pH 4.0, back into pH 8.0 before injection; step: stacks of rings back to single rings.
Assay [9] shares this target. Description: native MS; 20 uM protein (monomer) buffer exchanged from pH 8.0 into 100 mM ammonium acetate, pH 4.0; spectra from 60 seconds (0 hours) to 3 hours after exchange; step: ring-to-ring stacking.
The target is the same in assay [10]. Description: SEC-SLS; Superdex 200 Increase 10/300 GL with refractive index and right-angle light scattering, 28 C; 20 uM protein in 100 mM ammonium acetate, pH 8.0; step: chains to the dodecameric ring.

Where “and” joins values, the source holds several entries; their conditions need not be identical. Identical values can stand only once.

As a reminder, the stoichiometry N is a count of units in the complex or per binding partner. Consider “His6-tagged human peroxiredoxin 3 (natural protein)”, for which the stoichiometry N in assay [1] and in assay [5] was 12 throughout. The rings in a stack was 2 rings and 4 rings in [2]; 1 rings in [3]; 2 to 3 rings in [4].
Regarding “cleaved human peroxiredoxin 3 (natural protein)”, the stoichiometry N in assay [6] and in [10] was 12 throughout. In assay [7], this substance returned a rings in a stack (main population) of 34 rings. For the same substance, the rings in a stack in [8] is 1 rings and 2 rings; in assay [9], 6 rings. This substance also came in with a rings in the most populated stack in assay [9] of 3 rings.
